{"source": "patent US20160053277A1", "about": "“Compositions Having Dicamba Decarboxylase Activity and Methods of Use” (PIONEER HI-BRED INTERNATIONAL, INC., priority 2013, published 2016)", "assay": "Saturation mutagenesis of SEQ ID NO:109: dicamba decarboxylation activity of point mutants (carbon dioxide released)", "key": {"[1]": {"conditions": "dicamba decarboxylation activity of point mutants of SEQ ID NO: 109, relative to unchanged template"}, "[2]": {"conditions": "point mutation in SEQ ID NO: 109"}}, "data": [{"molecule": "R212Q: point mutant of SEQ ID NO: 109 (protein, Dicamba decarboxylase variant clone: DC.4.032) MAQGKVALEEHFAIPETLQDSAGFVPGDYWKELQHRLLDIQDTRLKLMDAHGIETMILSLNAPAVQAIPDRRKAIEIARRANDVLAEECAKRPDRFLAFAALPLQDPDAATEELQRCVNDLGFVGALVNGFSQEGDGQTPLYYDLPQYRPFWGEVEKLDVPFYLHPRNPLPQDSRIYDGHPWLLGPTWAFAQETAVHALRLMASGLFDEHPQLNIILGHMGEGLPYMMWRIDHRVAWVKLPPRYPAKRRFMDYFNENFHITTSGNFRTQTLIDAILEIGADRILFSTDWPFENIDHASDWFNATSIAEADRVKIGRTNARRLFKLDGA", "values": [{"measurement": "Average Activity (Fold of SEQ ID NO: 109)", "setting": "[1]", "value": "1.7 Fold of SEQ ID NO: 109"}, {"measurement": "Average Activity (Fold of SEQ ID NO: 109)", "setting": "[2]", "value": "1.7 Fold of SEQ ID NO: 109"}]}, {"molecule": "K239H: point mutant of SEQ ID NO: 109 (protein, Dicamba decarboxylase variant clone: DC.4.032) MAQGKVALEEHFAIPETLQDSAGFVPGDYWKELQHRLLDIQDTRLKLMDAHGIETMILSLNAPAVQAIPDRRKAIEIARRANDVLAEECAKRPDRFLAFAALPLQDPDAATEELQRCVNDLGFVGALVNGFSQEGDGQTPLYYDLPQYRPFWGEVEKLDVPFYLHPRNPLPQDSRIYDGHPWLLGPTWAFAQETAVHALRLMASGLFDEHPRLNIILGHMGEGLPYMMWRIDHRVAWVHLPPRYPAKRRFMDYFNENFHITTSGNFRTQTLIDAILEIGADRILFSTDWPFENIDHASDWFNATSIAEADRVKIGRTNARRLFKLDGA", "values": [{"measurement": "Average Activity (Fold of SEQ ID NO: 109)", "setting": "[1]", "value": "1.8 Fold of SEQ ID NO: 109"}, {"measurement": "Average Activity (Fold of SEQ ID NO: 109)", "setting": "[2]", "value": "1.8 Fold of SEQ ID NO: 109"}]}, {"molecule": "R243A: point mutant of SEQ ID NO: 109 (protein, Dicamba decarboxylase variant clone: DC.4.032) MAQGKVALEEHFAIPETLQDSAGFVPGDYWKELQHRLLDIQDTRLKLMDAHGIETMILSLNAPAVQAIPDRRKAIEIARRANDVLAEECAKRPDRFLAFAALPLQDPDAATEELQRCVNDLGFVGALVNGFSQEGDGQTPLYYDLPQYRPFWGEVEKLDVPFYLHPRNPLPQDSRIYDGHPWLLGPTWAFAQETAVHALRLMASGLFDEHPRLNIILGHMGEGLPYMMWRIDHRVAWVKLPPAYPAKRRFMDYFNENFHITTSGNFRTQTLIDAILEIGADRILFSTDWPFENIDHASDWFNATSIAEADRVKIGRTNARRLFKLDGA", "values": [{"measurement": "Average Activity (Fold of SEQ ID NO: 109)", "setting": "[1]", "value": "1.8 Fold of SEQ ID NO: 109"}, {"measurement": "Average Activity (Fold of SEQ ID NO: 109)", "setting": "[2]", "value": "1.8 Fold of SEQ ID NO: 109"}]}, {"molecule": "V235I: point mutant of SEQ ID NO: 109 (protein, Dicamba decarboxylase variant clone: DC.4.032) MAQGKVALEEHFAIPETLQDSAGFVPGDYWKELQHRLLDIQDTRLKLMDAHGIETMILSLNAPAVQAIPDRRKAIEIARRANDVLAEECAKRPDRFLAFAALPLQDPDAATEELQRCVNDLGFVGALVNGFSQEGDGQTPLYYDLPQYRPFWGEVEKLDVPFYLHPRNPLPQDSRIYDGHPWLLGPTWAFAQETAVHALRLMASGLFDEHPRLNIILGHMGEGLPYMMWRIDHRIAWVKLPPRYPAKRRFMDYFNENFHITTSGNFRTQTLIDAILEIGADRILFSTDWPFENIDHASDWFNATSIAEADRVKIGRTNARRLFKLDGA", "values": [{"measurement": "Average Activity (Fold of SEQ ID NO: 109)", "setting": "[1]", "value": "1.8 Fold of SEQ ID NO: 109"}, {"measurement": "Average Activity (Fold of SEQ ID NO: 109)", "setting": "[2]", "value": "1.8 Fold of SEQ ID NO: 109"}]}, {"molecule": "N214Q: point mutant of SEQ ID NO: 109 (protein, Dicamba decarboxylase variant clone: DC.4.032) MAQGKVALEEHFAIPETLQDSAGFVPGDYWKELQHRLLDIQDTRLKLMDAHGIETMILSLNAPAVQAIPDRRKAIEIARRANDVLAEECAKRPDRFLAFAALPLQDPDAATEELQRCVNDLGFVGALVNGFSQEGDGQTPLYYDLPQYRPFWGEVEKLDVPFYLHPRNPLPQDSRIYDGHPWLLGPTWAFAQETAVHALRLMASGLFDEHPRLQIILGHMGEGLPYMMWRIDHRVAWVKLPPRYPAKRRFMDYFNENFHITTSGNFRTQTLIDAILEIGADRILFSTDWPFENIDHASDWFNATSIAEADRVKIGRTNARRLFKLDGA", "values": [{"measurement": "Average Activity (Fold of SEQ ID NO: 109)", "setting": "[1]", "value": "1.8 Fold of SEQ ID NO: 109"}, {"measurement": "Average Activity (Fold of SEQ ID NO: 109)", "setting": "[2]", "value": "1.8 Fold of SEQ ID NO: 109"}]}, {"molecule": "E16A: point mutant of SEQ ID NO: 109 (protein, Dicamba decarboxylase variant clone: DC.4.032) MAQGKVALEEHFAIPATLQDSAGFVPGDYWKELQHRLLDIQDTRLKLMDAHGIETMILSLNAPAVQAIPDRRKAIEIARRANDVLAEECAKRPDRFLAFAALPLQDPDAATEELQRCVNDLGFVGALVNGFSQEGDGQTPLYYDLPQYRPFWGEVEKLDVPFYLHPRNPLPQDSRIYDGHPWLLGPTWAFAQETAVHALRLMASGLFDEHPRLNIILGHMGEGLPYMMWRIDHRVAWVKLPPRYPAKRRFMDYFNENFHITTSGNFRTQTLIDAILEIGADRILFSTDWPFENIDHASDWFNATSIAEADRVKIGRTNARRLFKLDGA", "values": [{"measurement": "Average Activity (Fold of SEQ ID NO: 109)", "setting": "[1]", "value": "1.8 Fold of SEQ ID NO: 109"}]}, {"molecule": "L240E: point mutant of SEQ ID NO: 109 (protein, Dicamba decarboxylase variant clone: DC.4.032) MAQGKVALEEHFAIPETLQDSAGFVPGDYWKELQHRLLDIQDTRLKLMDAHGIETMILSLNAPAVQAIPDRRKAIEIARRANDVLAEECAKRPDRFLAFAALPLQDPDAATEELQRCVNDLGFVGALVNGFSQEGDGQTPLYYDLPQYRPFWGEVEKLDVPFYLHPRNPLPQDSRIYDGHPWLLGPTWAFAQETAVHALRLMASGLFDEHPRLNIILGHMGEGLPYMMWRIDHRVAWVKEPPRYPAKRRFMDYFNENFHITTSGNFRTQTLIDAILEIGADRILFSTDWPFENIDHASDWFNATSIAEADRVKIGRTNARRLFKLDGA", "values": [{"measurement": "Average Activity (Fold of SEQ ID NO: 109)", "setting": "[1]", "value": "2.1 Fold of SEQ ID NO: 109"}, {"measurement": "Average Activity (Fold of SEQ ID NO: 109)", "setting": "[2]", "value": "2.1 Fold of SEQ ID NO: 109"}]}, {"molecule": "W229Y: point mutant of SEQ ID NO: 109 (protein, Dicamba decarboxylase variant clone: DC.4.032) MAQGKVALEEHFAIPETLQDSAGFVPGDYWKELQHRLLDIQDTRLKLMDAHGIETMILSLNAPAVQAIPDRRKAIEIARRANDVLAEECAKRPDRFLAFAALPLQDPDAATEELQRCVNDLGFVGALVNGFSQEGDGQTPLYYDLPQYRPFWGEVEKLDVPFYLHPRNPLPQDSRIYDGHPWLLGPTWAFAQETAVHALRLMASGLFDEHPRLNIILGHMGEGLPYMMYRIDHRVAWVKLPPRYPAKRRFMDYFNENFHITTSGNFRTQTLIDAILEIGADRILFSTDWPFENIDHASDWFNATSIAEADRVKIGRTNARRLFKLDGA", "values": [{"measurement": "Average Activity (Fold of SEQ ID NO: 109)", "setting": "[1]", "value": "1.7 Fold of SEQ ID NO: 109"}, {"measurement": "Average Activity (Fold of SEQ ID NO: 109)", "setting": "[2]", "value": "1.7 Fold of SEQ ID NO: 109"}]}, {"molecule": "S298A: point mutant of SEQ ID NO: 109 (protein, Dicamba decarboxylase variant clone: DC.4.032) MAQGKVALEEHFAIPETLQDSAGFVPGDYWKELQHRLLDIQDTRLKLMDAHGIETMILSLNAPAVQAIPDRRKAIEIARRANDVLAEECAKRPDRFLAFAALPLQDPDAATEELQRCVNDLGFVGALVNGFSQEGDGQTPLYYDLPQYRPFWGEVEKLDVPFYLHPRNPLPQDSRIYDGHPWLLGPTWAFAQETAVHALRLMASGLFDEHPRLNIILGHMGEGLPYMMWRIDHRVAWVKLPPRYPAKRRFMDYFNENFHITTSGNFRTQTLIDAILEIGADRILFSTDWPFENIDHAADWFNATSIAEADRVKIGRTNARRLFKLDGA", "values": [{"measurement": "Average Activity (Fold of SEQ ID NO: 109)", "setting": "[1]", "value": "2.1 Fold of SEQ ID NO: 109"}, {"measurement": "Average Activity (Fold of SEQ ID NO: 109)", "setting": "[2]", "value": "2.1 Fold of SEQ ID NO: 109"}]}, {"molecule": "L240A: point mutant of SEQ ID NO: 109 (protein, Dicamba decarboxylase variant clone: DC.4.032) MAQGKVALEEHFAIPETLQDSAGFVPGDYWKELQHRLLDIQDTRLKLMDAHGIETMILSLNAPAVQAIPDRRKAIEIARRANDVLAEECAKRPDRFLAFAALPLQDPDAATEELQRCVNDLGFVGALVNGFSQEGDGQTPLYYDLPQYRPFWGEVEKLDVPFYLHPRNPLPQDSRIYDGHPWLLGPTWAFAQETAVHALRLMASGLFDEHPRLNIILGHMGEGLPYMMWRIDHRVAWVKAPPRYPAKRRFMDYFNENFHITTSGNFRTQTLIDAILEIGADRILFSTDWPFENIDHASDWFNATSIAEADRVKIGRTNARRLFKLDGA", "values": [{"measurement": "Average Activity (Fold of SEQ ID NO: 109)", "setting": "[1]", "value": "2.3 Fold of SEQ ID NO: 109"}]}, {"molecule": "L240D: point mutant of SEQ ID NO: 109 (protein, Dicamba decarboxylase variant clone: DC.4.032) MAQGKVALEEHFAIPETLQDSAGFVPGDYWKELQHRLLDIQDTRLKLMDAHGIETMILSLNAPAVQAIPDRRKAIEIARRANDVLAEECAKRPDRFLAFAALPLQDPDAATEELQRCVNDLGFVGALVNGFSQEGDGQTPLYYDLPQYRPFWGEVEKLDVPFYLHPRNPLPQDSRIYDGHPWLLGPTWAFAQETAVHALRLMASGLFDEHPRLNIILGHMGEGLPYMMWRIDHRVAWVKDPPRYPAKRRFMDYFNENFHITTSGNFRTQTLIDAILEIGADRILFSTDWPFENIDHASDWFNATSIAEADRVKIGRTNARRLFKLDGA", "values": [{"measurement": "Average Activity (Fold of SEQ ID NO: 109)", "setting": "[1]", "value": "2.2 Fold of SEQ ID NO: 109"}]}, {"molecule": "S298T: point mutant of SEQ ID NO: 109 (protein, Dicamba decarboxylase variant clone: DC.4.032) MAQGKVALEEHFAIPETLQDSAGFVPGDYWKELQHRLLDIQDTRLKLMDAHGIETMILSLNAPAVQAIPDRRKAIEIARRANDVLAEECAKRPDRFLAFAALPLQDPDAATEELQRCVNDLGFVGALVNGFSQEGDGQTPLYYDLPQYRPFWGEVEKLDVPFYLHPRNPLPQDSRIYDGHPWLLGPTWAFAQETAVHALRLMASGLFDEHPRLNIILGHMGEGLPYMMWRIDHRVAWVKLPPRYPAKRRFMDYFNENFHITTSGNFRTQTLIDAILEIGADRILFSTDWPFENIDHATDWFNATSIAEADRVKIGRTNARRLFKLDGA", "values": [{"measurement": "Average Activity (Fold of SEQ ID NO: 109)", "setting": "[1]", "value": "2.3 Fold of SEQ ID NO: 109"}]}]}
